Test results taken from patent US20240092919A1 (Ablynx, published 2024).
Where “and” joins values, the source holds several entries; their conditions need not be identical. Equal entries are not always repeated. One block for each binder: values may come before it.

How the values were obtained:
cynomolgus CD33 on cells = target: T1, cynomolgus CD33 on cells (cynomolgus); assay: flow cytometry on CHO cells transfected with cynomolgus CD33
T1 construct: whole, on cells; also called CHO cy CD33; cyCD33
Experimental: (§1) Subsequently, cells were resuspended in 50 μL cold FACS buffer supplemented with 1 μg/mL the Propidium iodide (PI, Sigma P4170) to distinguish live from dead cells. After staining, cells were acquired using the MACSQuant X flow cytometer (Miltenyi Biotec) and analyzed using FlowLogic (Miltenyi Biotec). First a P1 population which represented more than 80% of the total events was selected based on FSC-SSC distribution, to distinguish cells from debris. From this population (P1) the PI positive (dead) cells were excluded and the median APC fluorescence intensity of the PI negative cells was evaluated.

human CD33 on cells = target: T2, human CD33 on cells (human, UniProt P20138 18-364); assay: flow cytometry on CHO cells transfected with human CD33
T2 construct: whole, on cells; also called CHO hu CD33; huCD33
Experimental: as §1

[1] = target: T3, Cynomolgus T cell receptor on the HSC-F cynomolgus T cell line (cynomolgus monkey); assay: flow cytometry competition with Flag3-His6-tagged anti-TCR ISVD ligand, HSC-F cells
T3 construct: whole, on cells; also called HSC-F cells; HSC-F cyno T cell line (NIBIO JCRB1164)
Experimental: (§2) Subsequently, cells were resuspended in FACS buffer supplemented with 1 μg/ml Propidium Iodide (PI, Sigma, P4170) to distinguish live from dead cells. Cells were analyzed using a FACS Array flow cytometer (BD Biosciences) using Flowing Software. First a P1 population which represented more than 80% of the total cell population was selected based on FSC-SSC distribution. In this gate, 10000 cells were counted during acquisition. From this population the Propidium iodide or TO-PRO©-3 Iodide positive cells (dead cells) were excluded and the median or Mean PE value was calculated.

[2] = target: T4, Human T cell receptor on human primary T cells (human, UniProt P01848 1-140; P01850 1-176); assay: flow cytometry competition with Flag3-His6-tagged anti-TCR ISVD ligand, human primary T cells
T4 construct: whole, on cells
Experimental: as §2
T4 TCR alpha (looked up): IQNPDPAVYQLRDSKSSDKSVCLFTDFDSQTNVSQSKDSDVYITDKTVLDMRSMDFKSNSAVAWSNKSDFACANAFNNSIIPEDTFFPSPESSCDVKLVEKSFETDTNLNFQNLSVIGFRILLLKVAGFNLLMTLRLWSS
T4 TCR beta (looked up): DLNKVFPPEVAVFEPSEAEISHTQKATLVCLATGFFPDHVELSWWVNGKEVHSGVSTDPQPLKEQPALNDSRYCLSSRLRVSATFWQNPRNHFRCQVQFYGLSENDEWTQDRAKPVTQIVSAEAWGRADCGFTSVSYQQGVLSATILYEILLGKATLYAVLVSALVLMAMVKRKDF

[3] = target: T5, Cynomolgus TCR(AEA41865/AEA41866)-zipper protein (cynomolgus monkey); assay: SPR, ProteOn XPR36, 37 C, immobilised TCR-zipper
T5 construct: also called cyTCR-zipper protein; cynoTCR zipper
Text: In brief, huTCR-zipper or cyTCR-zipper protein was immobilized on a GLC sensor chip (between 100-200 RU) via amine coupling chemistry, using EDC/NHS for activation of the carboxyl groups on the chip surface (running buffer: HBS-EP+, pH7.4). […] Processed sensorgrams were fitted with the Langmuir model (1:1 interaction) using ProteOn Manager 3.1.0 (Version 3.1.0.6) software.
T5 TCR alpha: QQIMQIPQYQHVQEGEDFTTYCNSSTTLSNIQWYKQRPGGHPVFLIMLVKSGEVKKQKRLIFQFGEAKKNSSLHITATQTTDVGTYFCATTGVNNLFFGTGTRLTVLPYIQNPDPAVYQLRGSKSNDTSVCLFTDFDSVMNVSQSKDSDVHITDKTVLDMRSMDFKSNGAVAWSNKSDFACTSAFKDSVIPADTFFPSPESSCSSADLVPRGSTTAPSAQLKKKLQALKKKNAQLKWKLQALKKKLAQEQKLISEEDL
T5 TCR beta: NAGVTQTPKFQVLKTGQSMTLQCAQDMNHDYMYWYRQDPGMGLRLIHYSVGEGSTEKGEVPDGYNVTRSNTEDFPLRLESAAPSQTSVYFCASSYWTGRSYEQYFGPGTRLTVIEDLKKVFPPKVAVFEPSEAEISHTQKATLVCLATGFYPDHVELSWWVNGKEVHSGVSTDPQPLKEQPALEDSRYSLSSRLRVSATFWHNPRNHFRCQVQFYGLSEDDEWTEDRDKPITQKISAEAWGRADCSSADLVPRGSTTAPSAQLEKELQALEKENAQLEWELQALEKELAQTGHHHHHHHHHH

human CD123 on cells [4] = target: T6, human CD123 on cells (human, UniProt P26951 19-378); assay: flow cytometry on CHO Flp-In huCD123 cells; FLAG-tagged ISVD, anti-FLAG + APC goat anti-mouse; MFI (median APC) [panel CHO Flp-In huCD123 cells]
T6 construct: also called CHO human CD123; CHO hu CD123

[5] = target: T7, cynomolgus CD123 on cells (cynomolgus); assay: flow cytometry on HEK Flp-In cyCD123 cells; FLAG-tagged ISVD, anti-FLAG + APC goat anti-mouse; MFI (median APC) [panel HEK Flp-In cyCD123 cells]
T7 construct: whole, on cells; also called HEK293 cyno CD123; cyCD123

[6] = target: T7, cynomolgus CD123 on cells; assay: flow cytometry on HEK293 cells transfected with cynomolgus CD123
human CD123 on cells [7] = target: T6, human CD123 on cells; assay: flow cytometry on CHO cells transfected with human CD123
Experimental: as §1

T6 sequence (P26951 19-378 limits assumed): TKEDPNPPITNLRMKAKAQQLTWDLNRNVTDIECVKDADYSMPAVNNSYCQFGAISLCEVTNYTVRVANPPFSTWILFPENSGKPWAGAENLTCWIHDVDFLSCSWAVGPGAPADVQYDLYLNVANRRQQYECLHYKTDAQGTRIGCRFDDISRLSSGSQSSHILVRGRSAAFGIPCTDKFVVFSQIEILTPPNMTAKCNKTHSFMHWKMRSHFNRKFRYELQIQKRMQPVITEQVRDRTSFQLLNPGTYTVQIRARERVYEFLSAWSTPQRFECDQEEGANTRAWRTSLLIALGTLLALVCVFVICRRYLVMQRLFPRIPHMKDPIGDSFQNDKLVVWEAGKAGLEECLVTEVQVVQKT
T2 sequence (P20138 18-364): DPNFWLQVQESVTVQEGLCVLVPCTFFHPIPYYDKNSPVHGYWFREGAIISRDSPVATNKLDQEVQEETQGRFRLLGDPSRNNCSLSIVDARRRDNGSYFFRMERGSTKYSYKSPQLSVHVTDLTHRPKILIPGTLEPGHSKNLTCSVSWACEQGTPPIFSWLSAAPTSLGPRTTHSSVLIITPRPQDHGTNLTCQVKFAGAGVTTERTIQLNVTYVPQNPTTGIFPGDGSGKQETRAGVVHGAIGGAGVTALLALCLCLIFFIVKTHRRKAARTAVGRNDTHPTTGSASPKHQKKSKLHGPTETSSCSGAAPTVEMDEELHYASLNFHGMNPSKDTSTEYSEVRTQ

EC50 (cynomolgus CD33 on cells): 5.7 nM and 12 nM
EC50 (human CD33 on cells): 6.2 nM and 5.5 nM and 7.7 nM
B1: monovalent CD33 building block (SEQ ID NO: 463) (VHH)
VHH: EVQLVESGGGVVQPGGSLRLSCAASGGVFRLNSMGWFRQAPGKQRELVAIITSDGDTNYADSVKGRFTISRDQAKNTVYLQMNSLRPEDTALYYCQITYSTSSYSFPINTWGQGTLVTVSS

IC50 [1]: 730 nM
IC50 [2]: 100 nM
Kd [3]: 4.9 nM
B2: T017000680 (VHH)
VHH: DVQLVESGGGVVQPGGSLRLSCVASGYVHKINFYGWYRQAPGKEREKVAHISIGDQTDYADSAKGRFTISRDESKNTVYLQMNSLRPEDTAAYYCRALSRIWPYDYWGQGTLVTVSS

EC50 (read off the curve) (human CD123 on cells [4]): ~0.7 nM
EC50 (read off the curve) [5]: ~0.3 nM
EC50 [6]: 0.8 nM
EC50 (human CD123 on cells [7]): 0.31 nM and 0.2 nM
B3: monovalent CD123 building block (SEQ ID NO: 462) (VHH)
VHH: EVQLVESGGGVVQPGGSLRLSCAASGVIFSGNVMGWYRRQAPGKEREWVAAIAEGGSILYRDSVKGRFTISRDNAKNTVYLQMNSLRPEDTALYYCNSHPPVLPYWGQGTLVTVSS
